Patent US20250197451A1 (CAPITAL MEDICAL UNIVERSITY SCHOOL OF STOMATOLOGY, published 2025)

target: T1, biotin-labelled EZH2 protein (UniProt Q15910 1-746, limits assumed, biotin label (EZ-link NHS-PEO4-Biotinylation kit)); assay: KDM2B peptide array probed with biotin-EZH2 1 ug/ml, SA-HRP/ECL;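 further: Background-corrected optical density of each spot on the membrane, given as percent of the brightest spot (100%), color developed for 5 minutes; 100% is the highest background-corrected spot optical density on the membrane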
T1 construct: Probe in solution (1 ug/ml) on the KDM2B peptide microarray; also called NHS-PEO4-Biotinylation-labelled EZH2 protein; recombinant protein
T1 sequence (Q15910 whole entry): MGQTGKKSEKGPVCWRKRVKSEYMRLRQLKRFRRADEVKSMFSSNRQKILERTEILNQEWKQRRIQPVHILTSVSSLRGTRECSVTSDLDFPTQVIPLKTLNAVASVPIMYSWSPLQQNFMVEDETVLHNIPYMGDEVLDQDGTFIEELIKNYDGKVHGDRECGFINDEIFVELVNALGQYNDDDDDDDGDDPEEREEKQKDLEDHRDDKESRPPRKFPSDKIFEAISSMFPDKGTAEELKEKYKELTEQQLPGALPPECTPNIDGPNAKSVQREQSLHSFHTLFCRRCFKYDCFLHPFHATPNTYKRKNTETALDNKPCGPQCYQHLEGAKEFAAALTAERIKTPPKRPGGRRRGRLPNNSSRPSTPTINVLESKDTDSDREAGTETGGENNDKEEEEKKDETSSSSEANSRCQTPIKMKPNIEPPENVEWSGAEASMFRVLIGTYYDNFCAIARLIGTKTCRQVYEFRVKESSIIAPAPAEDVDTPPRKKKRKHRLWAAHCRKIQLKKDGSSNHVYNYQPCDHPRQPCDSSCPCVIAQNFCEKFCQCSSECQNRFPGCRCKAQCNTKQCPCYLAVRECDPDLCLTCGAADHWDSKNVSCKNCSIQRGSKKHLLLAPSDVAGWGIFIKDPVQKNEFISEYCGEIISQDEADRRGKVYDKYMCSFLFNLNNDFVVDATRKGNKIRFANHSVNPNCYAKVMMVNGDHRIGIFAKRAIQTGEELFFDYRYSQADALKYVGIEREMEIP
Procedure: After blocking, the polypeptide microarray was incubated with biotin-labeled target protein for hybridization, visualized with the chemical chromogenic substrate and imaged using a Chempchemi digital imager. The image of colored polypeptide microarray was analyzed for the optical density of the colored points. Particularly, the optical density of each colored point was calculated using the optical density of the respective surrounding background as a reference for background correction. The highest optical density value of the colored point on membrane was set to 100%, and the optical density value of the remaining colored points was converted into percentages relative to the highest value. The points with an optical density percentage of more than 30% on the polypeptide membrane and also with an optical density percentage of less than 30% on the negative membrane were defined as positive colored points.
For the hybridization experiment, a solution of NHS-PEO4-Biotinylation-labelled EZH2 protein (1 μg/ml) was used for the hybridization of the polypeptide microarray. Streptavidin-HRP was used to amplify the reaction signal according to the experimental procedure and conditions described above, and the time of color development was 5 minutes.

| Binder | Intensity (%) |
| --- | --- |
| PPDSLPLDDGAAHVM [peptide 211] | 0% |
| CCDKRLWTRIDLNHC [peptide 220] | 4.32% |
| MRVCRTWNRWCCDKR [peptide 218] | 2.93% |
| ALRVPLIFREKDGLG [peptide 21] | 21.1% |
| LPNKELSRELSKELN [peptide 189] | 0% |
| YLSHQDLCVCMRVCR [peptide 216] | 0% |
| ELPEAPPKTRESDHS [peptide 180] | 0% |
| PLDDGAAHVMHREVW [peptide 212] | 0% |
| PDFTVRDVKLLVGSR [peptide 25] | 0.02% |
| LRRFKQEPEDELPEA [peptide 178] | 0% |
| IKMPDPDFTVRDVKL [peptide 24] | 0% |
| LRSPPRVISRPPPSV [peptide 204] | 1.91% |
| HEIQRTENSLANENQ [peptide 192] | 0.19% |
| PVSLDLSWTNISKKQ [peptide 226] | 0.51% |
| SKELNHEIQRTENSL [peptide 191] | 0% |
| LANKPLRRFKQEPED [peptide 177] | 0% |
| YVQREALRVPLIFRE [peptide 20] | 1.28% |
| LIFREKDGLGIKMPD [peptide 22] | 2.54% |
| RDVKLLVGSRRLVDV [peptide 26] | 0.36% |
| GPEEKKKVKMRRKRR [peptide 186] | 0% |
| SPPKCIQMERHVIRP [peptide 207] | 0% |
| QEPEDELPEAPPKTR [peptide 179] | 0.39% |
| MAVFSYLSHQDLCVC [peptide 215] | 2.82% |

| Binder | Intensity (%) |
| --- | --- |
| EPESEGEEPKRPPGI [peptide 196] | 1.04% |
| CERPHRFSKGLNGTP [peptide 199] | 0.18% |
| HREVWMAVFSYLSHQ [peptide 214] | 0% |
| ANENQQPIKSEPESE [peptide 194] | 0% |
| TENSLANENQQPIKS [peptide 193] | 0% |
| AAHVMHREVWMAVFS [peptide 213] | 11.8% |
| PPPSVSPPKCIQMER [peptide 206] | 1.29% |
| KKVKMRRKRRLPNKE [peptide 187] | 0.95% |
| NRLPGLRDLVLSGCS [peptide 230] | 7.03% |
| DLCVCMRVCRTWNRW [peptide 217] | 0.19% |
| RFSKGLNGTPRELRH [peptide 200] | 0.91% |
| DFNYEYVQREALRVP [peptide 19] | 0% |
| RRKRRLPNKELSREL [peptide 188] | 0.8% |
| DLNHCKSITPLMLSG [peptide 222] | 0% |
| QPIKSEPESEGEEPK [peptide 195] | 2.29% |
| LMLSGIIRRQPVSLD [peptide 224] | 0% |
| KDGLGIKMPDPDFTV [peptide 23] | 0% |
| TEGAEGPEEKKKVKM [peptide 185] | 0% |
| LSRELSKELNHEIQR [peptide 190] | 0.26% |
| LWTRIDLNHCKSITP [peptide 221] | 4.09% |
| QLGPSLRSPPRVISR [peptide 203] | 0% |
| GEEPKRPPGICERPH [peptide 197] | 0% |

The next lines start with the values.

| Intensity (%) | Binder |
| --- | --- |
| 1.18% | QWVEGLKDAQMRDLL [peptide 237] |
| 0.64% | MDNRSKLRNIVELRL [peptide 242] |
| 34.8% | WIAVSALCSSSCPLL [peptide 233] |
| 0.22% | INLLTAVGTTTRDSL [peptide 252] |
| 5.43% | SDCNKVTDQCLSFFK [peptide 256] |
| 95.4% | LSGCSWIAVSALCSS [peptide 232] |
| 0% | SPPTDNRPGQMDNRS [peptide 240] |
| 0.31% | AGLDITDASLRLIIR [peptide 245] |
| 100% | LRDLVLSGCSWIAVS [peptide 231] |
| 0% | VTDQSINLLTAVGTT [peptide 251] |
| 0.62% | LKDAQMRDLLSPPTD [peptide 238] |
| 0% | SYCNHVTDQSINLLT [peptide 250] |
| 22.3% | CHIDLRYCKQVTKEG [peptide 260] |
| 0% | SKLHLSYCNHVTDQS [peptide 249] |
| 0.92% | KLRNIVELRLAGLDI [peptide 243] |
| 0.9% | VELRLAGLDITDASL [peptide 244] |
| 3.66% | RLIIRHMPLLSKLHL [peptide 247] |
| 2.02% | SCPLLRTLDVQWVEG [peptide 235] |
| 2.09% | SVQFGQVEEKLLQKL [peptide 265] |
| 1.36% | RCGNICHIDLRYCKQ [peptide 259] |
| 3.59% | ALCSSSCPLLRTLDV [peptide 234] |
| 2.91% | AEMSVSVQFGQVEEK [peptide 264] |
| 1.15% | HMPLLSKLHLSYCNH [peptide 248] |
| 2.1% | RTLDVQWVEGLKDAQ [peptide 236] |
| 5.21% | RYCKQVTKEGCEQFI [peptide 261] |
| 1% | MRDLLSPPTDNRPGQ [peptide 239] |
